Positions count from the first letter of the chain named.

Usually EC50 stands for the midpoint of the concentration-response curve. A low value points to an effect from little substance.

To fix the notation:
T1: full-length keratin-10 (KRT10-FL) (human, UniProt P13645 1-584)
T1 construct: Keratin-10 (KRT10), residues 1-584, Uniprot ID P13645; also called KRT10-full-length; full-length KRT10; source: expressed from pET21d, purified as inclusion bodies, anion exchange in 6 M urea, dialysed against urea-free buffer
T1 sequence (looked up): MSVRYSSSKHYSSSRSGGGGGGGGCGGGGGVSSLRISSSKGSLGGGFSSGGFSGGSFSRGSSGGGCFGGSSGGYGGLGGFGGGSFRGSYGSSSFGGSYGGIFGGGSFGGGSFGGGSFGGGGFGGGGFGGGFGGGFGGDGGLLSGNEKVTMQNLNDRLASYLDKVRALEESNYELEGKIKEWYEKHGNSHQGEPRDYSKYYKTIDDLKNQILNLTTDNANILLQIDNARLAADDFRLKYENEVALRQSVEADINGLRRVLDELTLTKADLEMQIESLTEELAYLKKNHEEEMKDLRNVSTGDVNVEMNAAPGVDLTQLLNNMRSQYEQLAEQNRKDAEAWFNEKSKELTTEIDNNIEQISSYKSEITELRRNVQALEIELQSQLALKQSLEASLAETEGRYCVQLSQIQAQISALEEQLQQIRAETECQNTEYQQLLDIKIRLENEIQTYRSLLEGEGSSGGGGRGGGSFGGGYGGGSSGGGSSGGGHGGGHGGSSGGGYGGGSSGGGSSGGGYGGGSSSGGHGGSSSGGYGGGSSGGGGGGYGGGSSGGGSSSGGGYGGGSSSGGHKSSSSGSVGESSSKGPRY

T2: KRT10 rod domain (KRT10-ROD) (human, UniProt P13645 137-448, M150L)
T2 construct: Keratin-10 (KRT10), rod domain, residues 137-448, Uniprot ID P13645; M150L introduced to prevent second translation initiation; source: expressed from pET21d, purified as inclusion bodies, anion exchange in 6 M urea, dialysed against urea-free buffer
T2 sequence: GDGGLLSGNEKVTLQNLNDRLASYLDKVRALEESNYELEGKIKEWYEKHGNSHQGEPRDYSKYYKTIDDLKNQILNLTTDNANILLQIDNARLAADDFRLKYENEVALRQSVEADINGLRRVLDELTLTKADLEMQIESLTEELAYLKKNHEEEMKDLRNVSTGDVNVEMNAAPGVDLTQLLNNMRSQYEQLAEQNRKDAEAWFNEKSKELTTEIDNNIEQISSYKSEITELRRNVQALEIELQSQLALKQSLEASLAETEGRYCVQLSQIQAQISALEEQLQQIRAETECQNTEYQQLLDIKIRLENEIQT

T3: N321A-BR_(187–385) (S. pneumoniae TIGR4, UniProt A0A0H2URK1 186-384, N321A)
T3 construct: PsrP, S. pneumoniae TIGR4, residues 187-385, with N321A; source: expressed from pET21d; purification of the mutants not detailed (SEC mentioned)
T3 sequence: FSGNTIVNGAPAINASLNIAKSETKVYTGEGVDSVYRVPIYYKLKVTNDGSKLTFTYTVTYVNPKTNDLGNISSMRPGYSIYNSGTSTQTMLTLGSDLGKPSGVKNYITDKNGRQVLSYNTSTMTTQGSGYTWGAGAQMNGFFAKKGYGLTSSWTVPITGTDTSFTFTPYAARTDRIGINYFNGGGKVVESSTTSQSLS

T4: K231A-BR_(187–385) (S. pneumoniae TIGR4, UniProt A0A0H2URK1 186-384, K231A)
T4 construct: PsrP, S. pneumoniae TIGR4, residues 187-385, with K231A; also called control K231A-BR_(187–385); source: expressed from pET21d; purification of the mutants not detailed (SEC mentioned)
T4 sequence: T3 sequence with K45A, A135N

B1: Strep-Tag-II BR_(187–385) (KRT10-binding domain of the pneumococcal serine-rich repeat protein PsrP) (domain or fragment)
chain: T3 sequence with A135N
notes: also called STII-BR_(187–385); WT-BR_(187–385)
B2: KRT10 tail-rod-2B domain (KRT10-TRD) (domain or fragment)
chain: LKQSLEASLAETEGRYCVQLSQIQAQISALEEQLQQIRAETECQNTEYQQLLDIKIRLENEIQTYRSLLEGEGSSGGGGRGGGSFGGGYGGGSSGGGSSGGGHGGGHGGSSGGGYGGGSSGGGSSGGGYGGGSSSGGHGGSSSGGYGGGSSGGGGGGYGGGSSGGGSSSGGGYGGGSSSGGHKSSSSGSVGESSS
notes: Keratin-10 (KRT10), tail-rod-2B domain, residues 385-579, Uniprot ID P13645; source: expressed from pET21d, soluble, purified (IMAC, anion exchange)

What all share (conditions): both partners purified
Experiment [1] concerns the target T1, full-length keratin-10 (KRT10-FL). As to the kind of experiment: ELISA; KRT10 constructs coated on Nunc C96 plates (coating adjusted to KRT10-TRD at about 5 µg/ml), 2% BSA block; STII-BR_(187–385) 23 nM to 3 µM in PBS; detected with Strep-Tactin HRP; four-parameter logistic fit. (In general: ELISA stands for enzyme-linked immunosorbent assay.)
Experiment [2] deals with B2. Described as above.
Experiment [3] concerns the target T2, KRT10 rod domain (KRT10-ROD). Described as above.
Experiment [4] has as its target T3, N321A-BR_(187–385). The experiment is described as follows: ELISA; KRT10-TRD coated; WT-BR_(187–385) and mutated variants at a single concentration of 1 µM; detected with Strep-Tactin HRP; normalised intensities.
In experiment [5] the target is T4, K231A-BR_(187–385). The description is as above.

In the case of B1, the EC50 in experiment [1] was 345 nM; in experiment [2] it was 345 nM; in experiment [3], around 1800 nM.
As for B2, the binding result in experiment [4] and in experiment [5] was “binds” in each case.

These data come from paper PMC3909270, “The basic keratin 10-binding domain of the virulence-associated pneumococcal serine-rich protein PsrP adopts a novel MSCRAMM fold” (Open Biology, 2014).
